B1: SMG5 (parent)
chain: FVSIAQSEQESLLQQAQAQFRMAQ
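Note: lentivirally expressed fusions sorted by FACS into six bins by GFP to DsRed ratio, PSI derived from sequencing read proportions per bin multiplied by bin number.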

Variants of B1 are the subject of this series. The series can be described thus: protein stability index of a GFP-peptide fusion (GPS, HEK-293T) (PSI 1-6); higher = more stable. The note with it: c terminus: a fixed tail appended.
Turning to FVSIAQSEQESLLQQAQGQFRMAQ [A18G], the protein stability index is 1.89.
Regarding FVSIAQSEQESLLQQAQDQFRMAQ [A18D], the protein stability index came out at 2.37.
Take FVSIAQSEQESLLQQAQEQFRMAQ [A18E]: the protein stability index was found to be 2.48.
On to FVSIAQSEQESLLQQAQCQFRMAQ [A18C], for which the protein stability index is 1.98.
With FVSIAQSEQESLLQQAQFQFRMAQ [A18F], the protein stability index was found to be 1.74.
Consider FVSIAQSEQMSLLQQAQAQFRMAQ [E10M], for which the protein stability index was determined as 1.43.
In the case of FVSIAQSEQASLLQQAQAQFRMAQ [E10A], the protein stability index was determined as 1.89.
As for FVSIAQSEQTSLLQQAQAQFRMAQ [E10T], the protein stability index is 1.52.
For the variant FVSIAQSEQISLLQQAQAQFRMAQ [E10I], the protein stability index is 1.73.
As to FVSIAQSEQNSLLQQAQAQFRMAQ [E10N], the protein stability index turned out to be 2.03.
For the variant FVSIAQSEQCSLLQQAQAQFRMAQ [E10C], the protein stability index was found to be 2.07.
As for FVSIAQSEQQSLLQQAQAQFRMAQ [E10Q], the protein stability index was 2.54.
As for FVSIAQSEQYSLLQQAQAQFRMAQ [E10Y], the protein stability index came out at 1.89.
The same measure for FVSIAQSEQKSLLQQAQAQFRMAQ [E10K]: 1.87.
As to FVSIAQSEQLSLLQQAQAQFRMAQ [E10L], the protein stability index came out at 2.14.
Consider FVSIAQSEQPSLLQQAQAQFRMAQ [E10P], for which the protein stability index is 1.96.
The same measure for FVSIAQSEQHSLLQQAQAQFRMAQ [E10H]: 1.95; for FVSIAQSEQRSLLQQAQAQFRMAQ [E10R]: 2.2; for FVSIAQSEQVSLLQQAQAQFRMAQ [E10V]: 2.85.
FVSIAQSEQWSLLQQAQAQFRMAQ [E10W]: the protein stability index worked out at 2.89.
As to FVSIAQSEQGSLLQQAQAQFRMAQ [E10G], the protein stability index worked out at 1.6.
With FVSIAQSEQSSLLQQAQAQFRMAQ [E10S], the protein stability index came to 1.61.
On to FVSIAQSEQDSLLQQAQAQFRMAQ [E10D], for which the protein stability index turned out to be 2.19.
The same measure for FVSIAQSEQFSLLQQAQAQFRMAQ [E10F]: 2.2; for FVSIAQSEQESLLQQQQAQFRMAQ [A16Q]: 2.55.
For the variant FVSIAQSEQESLLQQWQAQFRMAQ [A16W], the protein stability index worked out at 1.94.
With FVSIAQSEQESLLQQHQAQFRMAQ [A16H], the protein stability index was found to be 2.56.
The figure for FVSIAQSEQESLLQQCQAQFRMAQ [A16C] is 1.36; for FVSIAQSEQESLLQQLQAQFRMAQ [A16L] it is 1.73; for FVSIAQSEQESLLQQEQAQFRMAQ [A16E] it is 2.43.
As for FVSIAQSEQESLLQQKQAQFRMAQ [A16K], the protein stability index was 1.68.
The figure for FVSIAQSEQESLLQQVQAQFRMAQ [A16V] is 1.78.
On to FVSIAQSEQESLLQQGQAQFRMAQ [A16G], for which the protein stability index is 2.09.
The figure for FVSIAQSEQESLLQQIQAQFRMAQ [A16I] is 2.16; for FVSIAQSEQESLLQQDQAQFRMAQ [A16D] it is 2.44; for FVSIAQSEQESLLQQPQAQFRMAQ [A16P] it is 1.88.
Consider FVSIAQSEQESLLQQSQAQFRMAQ [A16S], for which the protein stability index worked out at 1.94.
Regarding FVSIAQSEQESLLQQYQAQFRMAQ [A16Y], the protein stability index was 1.86.
The same measure for FVSIAQSEQESLLQQNQAQFRMAQ [A16N]: 2.37; for FVSIAQSEQESLLQQMQAQFRMAQ [A16M]: 2.2.
For FVSIAQSEQESLLQQRQAQFRMAQ [A16R], the protein stability index was 2.53.
Take FVSIAQSEQESLLQQFQAQFRMAQ [A16F]: the protein stability index came to 2.47.
Turning to FVSIAQSEQESLLQQTQAQFRMAQ [A16T], the protein stability index was found to be 2.69.
Take FVSIAQSEIESLLQQAQAQFRMAQ [Q9I]: the protein stability index was 1.67.
Turning to FVSIAQSEFESLLQQAQAQFRMAQ [Q9F], the protein stability index was 2.32.
In the case of FVSIAQSEVESLLQQAQAQFRMAQ [Q9V], the protein stability index turned out to be 1.91.
Consider FVSIAQSERESLLQQAQAQFRMAQ [Q9R], for which the protein stability index worked out at 1.85.
The figure for FVSIAQSELESLLQQAQAQFRMAQ [Q9L] is 3.25.
Regarding FVSIAQSEAESLLQQAQAQFRMAQ [Q9A], the protein stability index came to 1.56.
For FVSIAQSEWESLLQQAQAQFRMAQ [Q9W], the protein stability index was 1.67.
For FVSIAQSENESLLQQAQAQFRMAQ [Q9N], the protein stability index was found to be 2.08.
On to FVSIAQSEKESLLQQAQAQFRMAQ [Q9K], for which the protein stability index came out at 1.73.
Regarding FVSIAQSEEESLLQQAQAQFRMAQ [Q9E], the protein stability index stood at 2.25.
The same measure for FVSIAQSEHESLLQQAQAQFRMAQ [Q9H]: 2.2.
FVSIAQSEGESLLQQAQAQFRMAQ [Q9G]: the protein stability index turned out to be 1.95.
In the case of FVSIAQSEYESLLQQAQAQFRMAQ [Q9Y], the protein stability index was determined as 1.21.
Take FVSIAQSECESLLQQAQAQFRMAQ [Q9C]: the protein stability index amounted to 3.07.
Turning to FVSIAQSESESLLQQAQAQFRMAQ [Q9S], the protein stability index is 2.02.
For the variant FVSIAQSEDESLLQQAQAQFRMAQ [Q9D], the protein stability index turned out to be 2.15.
Turning to FVSIAQSEMESLLQQAQAQFRMAQ [Q9M], the protein stability index came to 2.02.
As to FVSIAQSETESLLQQAQAQFRMAQ [Q9T], the protein stability index amounted to 2.9.
FVSIAQSEPESLLQQAQAQFRMAQ [Q9P]: the protein stability index was determined as 1.63.
With FVSIAQSEQESLLQDAQAQFRMAQ [Q15D], the protein stability index stood at 2.55.
As for FVSIAQSEQESLLQCAQAQFRMAQ [Q15C], the protein stability index is 1.85.
Regarding FVSIAQSEQESLLQNAQAQFRMAQ [Q15N], the protein stability index stood at 2.5.
The same measure for FVSIAQSEQESLLQAAQAQFRMAQ [Q15A]: 1.44.
For the variant FVSIAQSEQESLLQFAQAQFRMAQ [Q15F], the protein stability index worked out at 1.4.
Regarding FVSIAQSEQESLLQMAQAQFRMAQ [Q15M], the protein stability index came out at 2.12.
Take FVSIAQSEQESLLQWAQAQFRMAQ [Q15W]: the protein stability index stood at 2.55.
In the case of FVSIAQSEQESLLQYAQAQFRMAQ [Q15Y], the protein stability index stood at 2.17.
The same measure for FVSIAQSEQESLLQEAQAQFRMAQ [Q15E]: 2.32.
As for FVSIAQSEQESLLQVAQAQFRMAQ [Q15V], the protein stability index worked out at 2.34.
The same measure for FVSIAQSEQESLLQHAQAQFRMAQ [Q15H]: 2.24; for FVSIAQSEQESLLQPAQAQFRMAQ [Q15P]: 2.28; for FVSIAQSEQESLLQIAQAQFRMAQ [Q15I]: 2.21.
As for FVSIAQSEQESLLQKAQAQFRMAQ [Q15K], the protein stability index is 2.22.
Regarding FVSIAQSEQESLLQRAQAQFRMAQ [Q15R], the protein stability index worked out at 2.44.
Turning to FVSIAQSEQESLLQGAQAQFRMAQ [Q15G], the protein stability index was determined as 2.55.
For FVSIAQSEQESLLQTAQAQFRMAQ [Q15T], the protein stability index is 1.59.
Turning to FVSIAQSEQESLLQSAQAQFRMAQ [Q15S], the protein stability index turned out to be 2.27.
As to FVSIAQSEQESLLQLAQAQFRMAQ [Q15L], the protein stability index came to 1.61.
For the variant FVSIAQSEQESLVQQAQAQFRMAQ [L13V], the protein stability index turned out to be 2.68.
Consider FVSIAQSEQESLKQQAQAQFRMAQ [L13K], for which the protein stability index worked out at 2.52.
With FVSIAQSEQESLAQQAQAQFRMAQ [L13A], the protein stability index turned out to be 2.14.
Consider FVSIAQSEQESLNQQAQAQFRMAQ [L13N], for which the protein stability index stood at 2.74.
On to FVSIAQSEQESLWQQAQAQFRMAQ [L13W], for which the protein stability index is 2.19.
For the variant FVSIAQSEQESLTQQAQAQFRMAQ [L13T], the protein stability index worked out at 2.28.
Take FVSIAQSEQESLRQQAQAQFRMAQ [L13R]: the protein stability index came out at 2.07.
As for FVSIAQSEQESLMQQAQAQFRMAQ [L13M], the protein stability index worked out at 2.66.
Consider FVSIAQSEQESLPQQAQAQFRMAQ [L13P], for which the protein stability index was determined as 3.08.
Turning to FVSIAQSEQESLHQQAQAQFRMAQ [L13H], the protein stability index stood at 3.08.
Consider FVSIAQSEQESLCQQAQAQFRMAQ [L13C], for which the protein stability index was found to be 2.88.
For FVSIAQSEQESLIQQAQAQFRMAQ [L13I], the protein stability index amounted to 2.87.
As for FVSIAQSEQESLYQQAQAQFRMAQ [L13Y], the protein stability index came to 1.31.
